Consider one substance from article PMC4899722.

Assay [1] concerns the target ASIC1a-2a-1a concatamer (rat) (UniProt P55926).
The target in assay [2] is ASIC1a-2a-2a concatamer (rat) (UniProt P55926).
Assay [3] addresses heteromeric ASIC1a/2a (oocytes co-expressing ASIC1a and ASIC2a) (rat) (UniProt P55926).

In the case of “psalmotoxin 1 (PcTx1) (from UniProt P60514 1-40) (peptide)”, the current left after 50 nM PcTx1 in the conditioning solution (pH 6.95), activation with pH 4.0, two-electrode voltage clamp in Xenopus oocytes; percent of the first current amplitude stood at 15.7% in assay [1], 64.8% in assay [2] and 66.5% in assay [3].
